To fix the notation:
T1: AP2-HC D1 (Plasmodium falciparum, UniProt Q8IKR9 1316-1374)
T1 sequence: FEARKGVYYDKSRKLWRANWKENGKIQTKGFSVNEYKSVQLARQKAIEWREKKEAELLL

B1: CACACA_site2466 (dsDNA)
DNA 1: TACCTAATATGTTATACACACATTATGAGTACATAT
DNA 2: ATATGTACTCATAATGTGTGTATAACATATTAGGTA
B2: CACACA_site1177 (dsDNA)
DNA 1: TTAATTTATAAAAACACACACAGGTAAAAAGGTGCA
DNA 2: TGCACCTTTTTACCTGTGTGTGTTTTTATAAATTAA
B3: CACACA_site4209 (dsDNA)
DNA 1: TATATATATGGACACACACACACCAAAGCGTAGCGC
DNA 2: GCGCTACGCTTTGGTGTGTGTGTGTCCATATATATA
B4: CACACA_site9055 (dsDNA)
DNA 1: ATATATATATATATTGTACACACATTTATGCATATA
DNA 2: TATATGCATAAATGTGTGTACAATATATATATATAT
B5: CACACA_site8083 (dsDNA)
DNA 1: AAAAAAAAAAAAAAAACACACACATGCACATCATAT
DNA 2: ATATGATGTGCATGTGTGTGTTTTTTTTTTTTTTTT
B6: CACACA_site762 (dsDNA)
DNA 1: ATTTTTTTATTTTGTGCACACACATAAAAATATATA
DNA 2: TATATATTTTTATGTGTGTGCACAAAATAAAAAAAT
B7: CACACA_site4030 (dsDNA)
DNA 1: AAGGAAATATAATATACACACATAAGTGTACTTATA
DNA 2: TATAAGTACACTTATGTGTGTATATTATATTTCCTT
B8: CACACA_site1542 (dsDNA)
DNA 1: AATGTACAAATACGTACACACATATATATATATATA
DNA 2: TATATATATATATATGTGTGTACGTATTTGTACATT
B9: CACACA_site5932 (dsDNA)
DNA 1: GCATTGTCCATGCGCACACACTACTAGAATAATATG
DNA 2: CATATTATTCTAGTAGTGTGTGCGCATGGACAATGC
B10: CACACA_site8859 (dsDNA)
DNA 1: ACGATGTTCATCACTACACACACAAAGAAATATATA
DNA 2: TATATATTTCTTTGTGTGTGTAGTGATGAACATCGT
B11: CACACA_site6324 (dsDNA)
DNA 1: CATAAATCAGCCATAACACACATACCTATATACATA
DNA 2: TATGTATATAGGTATGTGTGTTATGGCTGATTTATG
B12: CACACA_site7630 (dsDNA)
DNA 1: ATTATACACGCGCGCACACACAACAAAAAAAAAAAA
DNA 2: TTTTTTTTTTTTGTTGTGTGTGCGCGCGTGTATAAT
B13: CACACA_site7028 (dsDNA)
DNA 1: CATACATACATACATACACACATATATAAATATATG
DNA 2: CATATATTTATATATGTGTGTATGTATGTATGTATG
B14: CACACA_site8596 (dsDNA)
DNA 1: AATGTGTATATATATACACACACATATATATATTTT
DNA 2: AAAATATATATATGTGTGTGTATATATATACACATT
B15: CACACA_site8543 (dsDNA)
DNA 1: ATTAATATATAACGTGCACACACACCGTTACGTATG
DNA 2: CATACGTAACGGTGTGTGTGCACGTTATATATTAAT
B16: CACACA_site2250 (dsDNA)
DNA 1: GAAAGAATAAAATTTACACACATATATATATACATA
DNA 2: TATGTATATATATATGTGTGTAAATTTTATTCTTTC
B17: CACACA_site1421 (dsDNA)
DNA 1: AAAAGTAACAAAGCTACACACATTTAAATAAACATA
DNA 2: TATGTTTATTTAAATGTGTGTAGCTTTGTTACTTTT
B18: CACACA_site1016 (dsDNA)
DNA 1: AAATAATGGTTAGCTACACACAAAGCATTTTTTGAA
DNA 2: TTCAAAAAATGCTTTGTGTGTAGCTAACCATTATTT
B19: CACACA_site8531 (dsDNA)
DNA 1: ATTTATAATTTTTGAGCACACACAAGCATATATATA
DNA 2: TATATATATGCTTGTGTGTGCTCAAAAATTATAAAT
B20: CACACA_site8 (dsDNA)
DNA 1: TTTATAATTTATATCACACACATATATATATAGTAA
DNA 2: TTACTATATATATATGTGTGTGATATAAATTATAAA
B21: CACACA_site6959 (dsDNA)
DNA 1: GTTTCCTTAATATTCACACACATATCTATAATATAT
DNA 2: ATATATTATAGATATGTGTGTGAATATTAAGGAAAC
B22: CACACA_site269 (dsDNA)
DNA 1: AAATAATTCAAAAAAACACACAAATTACAAAATAAA
DNA 2: TTTATTTTGTAATTTGTGTGTTTTTTTGAATTATTT
B23: CACACA_site65 (dsDNA)
DNA 1: CATGTAATATTAAACACACACTCATATAACACAATA
DNA 2: TATTGTGTTATATGAGTGTGTGTTTAATATTACATG
B24: CACACA_site8866 (dsDNA)
DNA 1: CCGCCATTGTACCATCCACACACATATATATATGTA
DNA 2: TACATATATATATGTGTGTGGATGGTACAATGGCGG
B25: CACACA_site1431 (dsDNA)
DNA 1: AAAAAAAAAAAAAATACACACAAATAATAAAAATAA
DNA 2: TTATTTTTATTATTTGTGTGTATTTTTTTTTTTTTT
B26: CACACA_site7688 (dsDNA)
DNA 1: AATATAAATAAAAACACACACAATGGTACCTATATA
DNA 2: TATATAGGTACCATTGTGTGTGTTTTTATTTATATT
B27: CACACA_site806 (dsDNA)
DNA 1: ATTTAAATAAGATATACACACAAGTAGAAGACTATG
DNA 2: CATAGTCTTCTACTTGTGTGTATATCTTATTTAAAT
B28: CACACA_site1745 (dsDNA)
DNA 1: CACATACAGACATACACACATACACATATACGCATA
DNA 2: TATGCGTATATGTGTATGTGTGTATGTCTGTATGTG
B29: CACACA_site1704 (dsDNA)
DNA 1: ACCTCATAATATTTAACACACAAAATTATATGTATG
DNA 2: CATACATATAATTTTGTGTGTTAAATATTATGAGGT
B30: CACACA_site6202 (dsDNA)
DNA 1: CTCATCCTTACATACACACACATATATTTATTTATA
DNA 2: TATAAATAAATATATGTGTGTGTATGTAAGGATGAG
B31: CACACA_site3184 (dsDNA)
DNA 1: TACTAAAACCCATACACACACATATATATAGTACCA
DNA 2: TGGTACTATATATATGTGTGTGTATGGGTTTTAGTA
B32: CACACA_site7599 (dsDNA)
DNA 1: AGCATTTTAAGTTATACACACATTTTGAATCTATAT
DNA 2: ATATAGATTCAAAATGTGTGTATAACTTAAAATGCT
B33: CACACA_site3383 (dsDNA)
DNA 1: ATATTAAACAAACACACACACATATATATATATATA
DNA 2: TATATATATATATATGTGTGTGTGTTTGTTTAATAT
B34: CACACA_site9374 (dsDNA)
DNA 1: TATAGAATAATCTATAAACACACAAACACAACAAAA
DNA 2: TTTTGTTGTGTTTGTGTGTTTATAGATTATTCTATA
B35: CACACA_site1501 (dsDNA)
DNA 1: TAATAATAATTATATACACACATGTATATTATATTT
DNA 2: AAATATAATATACATGTGTGTATATAATTATTATTA
B36: CACACA_site8569 (dsDNA)
DNA 1: CTTTAATATTTTATTTCACACACATAAATGCCCCAA
DNA 2: TTGGGGCATTTATGTGTGTGAAATAAAATATTAAAG
B37: CACACA_site8848 (dsDNA)
DNA 1: ATATAAATTTTTTATGAACACACAAATACAGACACT
DNA 2: AGTGTCTGTATTTGTGTGTTCATAAAAAATTTATAT
B38: CACACA_site5095 (dsDNA)
DNA 1: ACATCATTTTTATGTACACACACATATACGTTGAAT
DNA 2: ATTCAACGTATATGTGTGTGTACATAAAAATGATGT
B39: CACACA_site9385 (dsDNA)
DNA 1: AATATATGTTTAATTTCACACACAAATATACATTTT
DNA 2: AAAATGTATATTTGTGTGTGAAATTAAACATATATT
B40: CACACA_site9254 (dsDNA)
DNA 1: TTAATAAATATCAATACACACACACTAATGTGAATA
DNA 2: TATTCACATTAGTGTGTGTGTATTGATATTTATTAA
B41: CACACA_site6756 (dsDNA)
DNA 1: ACAAATAAAAAAATTACACACATATAAAATATAGAT
DNA 2: ATCTATATTTTATATGTGTGTAATTTTTTTATTTGT

The data set has as its target T1, AP2-HC D1. The data set is described as follows: gcPBM; about 25 ug protein; PBS, 1% milk, 0.2 mg/ml BSA, salmon testes DNA, 0.03% Triton X-100. The note with it: tags: N-terminal GST (pGEX-4T-1), kept; label: surface-attached array probe.
B1: the binding signal was 9.88 ln median PBM intensity, better of two orientations.

Take B2: the binding signal is 10.3 ln median PBM intensity, better of two orientations.

On to B3, for which the binding signal is 10.3 ln median PBM intensity, better of two orientations.

With B4, the binding signal was 10.3 ln median PBM intensity, better of two orientations.

As to B5, the binding signal is 10.4 ln median PBM intensity, better of two orientations.

In the case of B6, the binding signal was 9.86 ln median PBM intensity, better of two orientations.

Turning to B7, the binding signal was 9.82 ln median PBM intensity, better of two orientations.

On to B8, for which the binding signal was 10.2 ln median PBM intensity, better of two orientations.

Regarding B9, the binding signal was 10.2 ln median PBM intensity, better of two orientations.

Turning to B10, the binding signal was 10.1 ln median PBM intensity, better of two orientations.

Consider B11, for which the binding signal was 10.3 ln median PBM intensity, better of two orientations.

With B12, the binding signal is 10.3 ln median PBM intensity, better of two orientations.

Turning to B13, the binding signal was 10.2 ln median PBM intensity, better of two orientations.

For the molecule B14, the binding signal is 10.1 ln median PBM intensity, better of two orientations.

Regarding B15, the binding signal is 10.3 ln median PBM intensity, better of two orientations.

Turning to B16, the binding signal is 9.82 ln median PBM intensity, better of two orientations.

Regarding B17, the binding signal was 9.84 ln median PBM intensity, better of two orientations.

With B18, the binding signal is 9.81 ln median PBM intensity, better of two orientations.

As for B19, the binding signal is 9.85 ln median PBM intensity, better of two orientations.

For B20, the binding signal is 9.83 ln median PBM intensity, better of two orientations.

B21: the binding signal was 10.2 ln median PBM intensity, better of two orientations.

On to B22, for which the binding signal is 10.2 ln median PBM intensity, better of two orientations.

B23: the binding signal is 10.2 ln median PBM intensity, better of two orientations.

As for B24, the binding signal is 10.3 ln median PBM intensity, better of two orientations.

As for B25, the binding signal was 10.1 ln median PBM intensity, better of two orientations.

In the case of B26, the binding signal was 10.3 ln median PBM intensity, better of two orientations.

In the case of B27, the binding signal is 9.85 ln median PBM intensity, better of two orientations.

Turning to B28, the binding signal is 10.2 ln median PBM intensity, better of two orientations.

In the case of B29, the binding signal is 9.87 ln median PBM intensity, better of two orientations.

Consider B30, for which the binding signal is 10.2 ln median PBM intensity, better of two orientations.

As for B31, the binding signal was 10.2 ln median PBM intensity, better of two orientations.

On to B32, for which the binding signal was 9.87 ln median PBM intensity, better of two orientations.

Take B33: the binding signal was 10.2 ln median PBM intensity, better of two orientations.

With B34, the binding signal is 10.1 ln median PBM intensity, better of two orientations.

Turning to B35, the binding signal was 9.81 ln median PBM intensity, better of two orientations.

As for B36, the binding signal was 9.84 ln median PBM intensity, better of two orientations.

B37: the binding signal is 10.3 ln median PBM intensity, better of two orientations.

In the case of B38, the binding signal is 10.2 ln median PBM intensity, better of two orientations.

As for B39, the binding signal was 10.2 ln median PBM intensity, better of two orientations.

In the case of B40, the binding signal was 10.1 ln median PBM intensity, better of two orientations.

As for B41, the binding signal is 10.1 ln median PBM intensity, better of two orientations.
